# Source: patent publication US20110117206A1, “PHOSPHOPEPTIDES AND USE OF THE SAME” (PLANT BIOSCIENCE LIMITED, priority 2008, published 2011)
# Key:
# [1] = SAXS and structural model of calcium phosphate nanoclusters; format: physicochemical; conditions: from modelling of the structure
# Procedure: For the OPN 1-149 nanocluster, a description of the peptide segment distribution around the core was considered which is more explicit than that provided by the core-shell model. The simplest block copolymer micelle model has been used in which a corona is formed by Gaussian chains attached by one end to a uniform spherical core. The nanoclusters were prepared either on the SAXS station and measured immediately or were prepared 2 days previously to allow the system to come to equilibrium. The sample was then stored at room temperature and remeasured 5 months later during a later allocation of beamtime. […] The intensity averaged diffusion coefficient, D, was determined with a Malvern Zetasizer Nano instrument.
# The results of the SAXS measurements on nanocluster sub-samples measured as a function of time after the addition of the urease are summarised in FIGS. 6a and 6b. […] According to the calculated degree of reaction of the phosphate centres and to the analysis of the correlation function given by the dynamic light scattering studies, the equilibrium state has a significant excess of free peptide, the scattering from which, although negligible at low q, has to be taken account of in modelling the SAXS at higher q. […]
# [2] = Ca2+ binding isotherm (Ca ion selective electrode) fitted with semi-empirical binding model; conditions: 6.4 = high affinity dianionic phosphoseryl sites; listed as OPN peptide
# Text: To model the chemical species in the OPN 1-149 nanocluster solution requires the calculation of Ca ion binding to the free peptide at any pH in the range 5.0-8.0. A semi-empirical model was used to describe the binding isotherms obtained previously for the β-casein 1-25 phosphopeptide in this pH range and the same model was adapted to fit the binding isotherm of OPN 1-149 measured at pH 7.0. The rescaled model was then used to predict binding at any other value of the pH. Binding of Ca ions to the β-casein 1-25 peptide is predominantly to 4 phosphorylated residues and, to a lesser extent, to 7 Glu residues and the C-terminus.
# Fitting of the experimental isotherms was done to an equation of the form
# where the summation is over all binding sites with Ca ion association constants Ka,i. The function Ni(pH) describes the number of sites of type i as a function of pH and φi is the degree of phosphorylation. It was assumed, that all the phosphorylated sites had the average degree of phosphorylation φ. The number of dianionic phosphoseryl sites at a given pH is given by
# The binding behaviour of β-casein has shown that one Ca ion is bound much more strongly than the rest, so the model for binding to the phosphate dianionic groups allowed for two pKs and two Ca ion association constants. The phosphorylated sites have a reduced affinity for Ca ions when they become protonated and were treated as having the same low affinity as the carboxyl groups. […]
# The Ca^2+ binding isotherm of peptides recovered from fraction F3a was determined by measuring the concentration of free Ca ions with a Ca ion selective electrode after successive small additions of a stock solution of 100 mM Ca(NO3)2 to a solution containing 25 mg ml^−1 of F3a, buffered to pH 7.0 with 20 mM P, and 50 mM KNO3. […] The calculated OPN 1-149 isotherm was obtained by a separate fitting of the single isotherm employing a model with two pKs and association constants but keeping as many as possible of the constants from the casein model.
# [3] = Partition of salts by ultrafiltration and ion equilibria model of nanocluster solutions; format: physicochemical; conditions: nanocluster solution at pH 7.0
# Procedure: Nanocluster solutions of the Ca-free OPNmix in the Mg-free Buffer A were prepared by the urea/urease method with a pH between 5.0 and 7.5. They were allowed to equilibrate before ultrafiltration through Vivaspin 0.5 ml concentrators (Product VS0101 with a molecular weight cut off of 10,000 Da, Vivascience AG, Germany) using a centripetal field of 5000×g for 15 min. […] The ion activity product in the ultrafiltrates were calculated at each pH for a range of y values in order to find the value that was independent of pH.
# In addition to the work with the OPNmix sample, a single determination was made of the partition of salts in a nanocluster solution at pH 7.0 prepared with the pure OPN 1-149 peptide.
substance,measurement,setting,value
"OPN 1-149: N-terminal osteopontin phosphopeptide fragment from bovine milk, probably formed by plasmin; gel filtration fraction F3a",number of peptide chains on a nanocluster,[1],about 2618
same,pKs fitted to the OPN 1-149 isotherm,[2],6.4
same,"ultrafiltrate concentration of Ca, experimental",[3],1.4 mM
same,"ultrafiltrate concentration of Ca^2+, experimental",[3],1.1 mM
same,"ultrafiltrate concentration of Pi, experimental",[3],12.1 mM
